# Patent publication US20230124851A1 (INHIBRX LNC, published 2023)
# T1: human B7H3 (CD276) on the cell surface (human, UniProt Q5ZPR3 29-534)
# T1 construct: B7H3 on A375 and other B7H3-positive or transfected cells
# T1 sequence: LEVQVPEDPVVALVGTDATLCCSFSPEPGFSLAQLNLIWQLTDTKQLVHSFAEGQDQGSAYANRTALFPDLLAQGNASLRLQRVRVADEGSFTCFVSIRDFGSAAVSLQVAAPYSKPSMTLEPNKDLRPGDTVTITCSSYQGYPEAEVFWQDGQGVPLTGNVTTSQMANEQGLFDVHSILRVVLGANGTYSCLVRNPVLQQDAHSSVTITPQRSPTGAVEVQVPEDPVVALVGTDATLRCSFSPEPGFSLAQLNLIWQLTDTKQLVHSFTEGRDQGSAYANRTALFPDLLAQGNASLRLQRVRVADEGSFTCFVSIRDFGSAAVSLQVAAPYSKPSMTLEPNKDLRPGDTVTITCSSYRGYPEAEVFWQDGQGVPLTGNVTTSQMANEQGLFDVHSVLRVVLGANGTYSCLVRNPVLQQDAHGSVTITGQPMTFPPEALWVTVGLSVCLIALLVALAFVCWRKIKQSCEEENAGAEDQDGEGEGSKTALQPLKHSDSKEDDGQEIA
# How the values were obtained:
# [1] = target: T1, human B7H3 (CD276) on the cell surface; experiment: flow cytometry on A375 cells (B7H3+), anti-human Fc secondary
# Procedure: (§1) Binding of exemplary multispecific constructs containing an antigen-binding domain directed against B7H3 were assessed for binding to B7H3 positive A375 tumor cells or primary T-cells. The constructs were generated containing antigen-binding domain(s) that were either sdAbs or a FABs, and that were positioned either only N-terminal to the Fc or both N-terminal to the Fc and C-terminal to the anti-CD3 binding domain (see FIGS. 30A and 30C and Table E5). Among the various formats of constructs tested included: sdAb-Fc-dsFV-sdAb (cx3072, cx5952) sdAb-Fc-FV (cx6079), sdAb-Fc-dsFV (cs6080, cx6081), MAB-FV (cx5067) and MAB-dsFV (cx6083, cx6084), where the FV represents the anti-CD3 binding domain composed of VH and VL domain pairs and “ds” notes disulfide stabilized via an engineered interdomain disulfide bond.
# (§2) Binding was assessed as described above via flow cytometry using a fluorophore-conjugated anti-human Fc secondary antibody. cx3072 bound to A375 cells with high affinity (FIG. 31A) but not to isolated T-cells (FIG. 31B). […] The B7H3 -targeting sdAb containing constructs (cx5952, cx6079, cx6080, and cx6081) bound to B7H3 positive cells with similar affinities (depicted in FIG. 31E), with cx5952 displaying higher maximal binding. cx6079, cx6080 and cx6081 contain two identical B7H3-targeting sdAbs, whereas cx5952, and cx3072 contain two distinct B7H3-targeting sdAb that bind different epitopes. The MAB-FV, cx5067, contains two identical B7H3-targeting FAB domains.
# [2] = target: T2, CD3 on the surface of human T cells (human, UniProt P07766 23-207); experiment: flow cytometry on primary human T cells, anti-human Fc secondary
# T2 construct: whole, on cells; Part of the CD3/TCR complex on cells; also called CD3 epsilon
# Procedure: as §1, §2
# T2 sequence (P07766 23-207): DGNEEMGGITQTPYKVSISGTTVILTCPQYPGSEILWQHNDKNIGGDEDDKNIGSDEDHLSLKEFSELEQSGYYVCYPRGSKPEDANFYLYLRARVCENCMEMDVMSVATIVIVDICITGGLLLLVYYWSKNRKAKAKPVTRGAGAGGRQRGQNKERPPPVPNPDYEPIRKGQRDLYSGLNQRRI
binding result [1],binding result [2],Binder
binds,no binding,"cx5067 (bispecific antibody, anti-CD3 Fv not disulfide-stabilized; also called MAB-FV) chain 1: EVQLVESGGGLVQPGGSLRLSCAASGFTFSSFGMHWVRQAPGKGLEWVAYISSDSSAIYYADTVKGRFTISRDNAKNSLYLQMNSLRDEDTAVYYCGRGRENIYYGSRLDYWGQGTTVTVSSASTKGPSVFPLAPSSKSTSGGTAALGCLVKDYFPEPVTVSWNSGALTSGVHTFPAVLQSSGLYSLSSVVTVPSSSLGTQTYICNVNHKPSNTKVDKKVEPKSCDKTHTCPPCPAPPVAGPSVFLFPPKPKDTLMISRTPEVTCVVVDVKHEDPEVKFNWYVDGVEVHNAKTKPREEEYNSTYRVVSVLTVLHQDWLNGKEYKCKVSNKALPAPIEKTISKAKGQPREPQVYTLPPSREEMTKNQVSLTCDVSGFYPSDIAVEWESDGQPENNYKTTPPVLDSDGSFFLYSKLTVDKSRWEQGDVFSCSVMHEALHNHYTQKSLSLSPGKGGGGSGGGGSGGGGSEVQLVESGGGLVQPGGSLRLSCAASGFTFSTYAMNWVRQAPGKGLEWVGRIRSKYNNYATYYADSVKGRFTISRDDSKNTLYLQMNSLRAEDTAVYYCVRHGNFGDSYVSWFAYWGQGTLVTVSS chain 2: EVQLVESGGGLVQPGGSLRLSCAASGFTFSSFGMHWVRQAPGKGLEWVAYISSDSSAIYYADTVKGRFTISRDNAKNSLYLQMNSLRDEDTAVYYCGRGRENIYYGSRLDYWGQGTTVTVSSASTKGPSVFPLAPSSKSTSGGTAALGCLVKDYFPEPVTVSWNSGALTSGVHTFPAVLQSSGLYSLSSVVTVPSSSLGTQTYICNVNHKPSNTKVDKKVEPKSCDKTHTCPPCPAPPVAGPSVFLFPPKPKDTLMISRTPEVTCVVVDVKHEDPEVKFNWYVDGVEVHNAKTKPREEQYNSTYRVVSVLTVLHQDWLNGKEYKCKVSNKALPAPIEKTISKAKGQPREPQVYTLPPSREQMTKNQVKLTCLVKGFYPSDIAVEWESNGQPENNYKTTPPVLDSDGSFFLYSKLTVDKSRWQQGNVFSCSVMHEALHNHYTQKSLSLSPGKGGGGSGGGGSGGGGSQAVVTQEPSLTVSPGGTVTLTCGSSTGAVTTSNYANWVQQKPGKSPRGLIGGTNKRAPGVPARFSGSLLGGKAALTISGAQPEDEADYYCALWYSNHWVFGGGTKLTVL light: DIQLTQSPSFLSASVGDRVTITCKASQNVDTNVAWYQQKPGKAPKALIYSASYRYSGVPSRFSGSGSGTDFTLTISSLQPEDFATYYCQQYNNYPFTFGQGTKLEIKRTVAAPSVFIFPPSDEQLKSGTASVVCLLNNFYPREAKVQWKVDNALQSGNSQESVTEQDSKDSTYSLSSTLTLSKADYEKHKVYACEVTHQGLSSPVTKSFNRGEC"
binds,no binding,"cx6080 (bispecific antibody, also called cs6080; sdAb-Fc-dsFV) chain 1: EVQLVESGGGEVQPGGSLRLSCAASGFSFSSNVMMWVRQAPGKGLEWVSTIYSSGTGTFYAESVKGRFTISRDNAKNTLYLQMSSLRPEDTAVYYCATSGPVRGWGPRSQGTLVTVKPPGGGGDKTHTCPPCPAPPVAGPSVFLFPPKPKDTLMISRTPEVTCVVVDVKHEDPEVKFNWYVDGVEVHNAKTKPREEEYNSTYRVVSVLTVLHQDWLNGKEYKCKVSNKALPAPIEKTISKAKGQPREPQVYTLPPSREEMTKNQVSLTCDVSGFYPSDIAVEWESDGQPENNYKTTPPVLDSDGSFFLYSKLTVDKSRWEQGDVFSCSVMHEALHNHYTQKSLSLSPGKGGGGSGGGGSGGGGSEVQLVESGGGLVQPGGSLRLSCAASGFTFSTYAMNWVRQAPGKCLEWVGRIRSKYNNYATYYADSVKGRFTISRDDSKNTLYLQMNSLRAEDTAVYYCVRHGNFGDSYVSWFAYWGQGTLVTVSS chain 2: EVQLVESGGGEVQPGGSLRLSCAASGFSFSSNVMMWVRQAPGKGLEWVSTIYSSGTGTFYAESVKGRFTISRDNAKNTLYLQMSSLRPEDTAVYYCATSGPVRGWGPRSQGTLVTVKPPGGGGDKTHTCPPCPAPPVAGPSVFLFPPKPKDTLMISRTPEVTCVVVDVKHEDPEVKFNWYVDGVEVHNAKTKPREEQYNSTYRVVSVLTVLHQDWLNGKEYKCKVSNKALPAPIEKTISKAKGQPREPQVYTLPPSREQMTKNQVKLTCLVKGFYPSDIAVEWESNGQPENNYKTTPPVLDSDGSFFLYSKLTVDKSRWQQGNVFSCSVMHEALHNHYTQKSLSLSPGKGGGGSGGGGSGGGGSQAVVTQEPSLTVSPGGTVTLTCGSSTGAVTTSNYANWVQQKPGKSPRGLIGGTNKRAPGVPARFSGSLLGGKAALTISGAQPEDEADYYCALWYSNHWVFGCGTKLTVL"
binds,no binding,"cx6081 (bispecific antibody, also called sdAb-Fc-dsFV) chain 1: EVQLVESGGGEVQPGGSLRLSCAASGFSFSSNVMMWVRQAPGKGLEWVSTIYSSGTGTFYAESVKGRFTISRDNAKNTLYLQMSSLRPEDTAVYYCATSGPVRGWGPRSQGTLVTVKPPGGGGDKTHTCPPCPAPPVAGPSVFLFPPKPKDTLMISRTPEVTCVVVDVKHEDPEVKFNWYVDGVEVHNAKTKPREEEYNSTYRVVSVLTVLHQDWLNGKEYKCKVSNKALPAPIEKTISKAKGQPREPQVYTLPPSREEMTKNQVSLTCDVSGFYPSDIAVEWESDGQPENNYKTTPPVLDSDGSFFLYSKLTVDKSRWEQGDVFSCSVMHEALHNHYTQKSLSLSPGKGGGGSGGGGSGGGGSEVQLVESGGGLVQPGGSLRLSCAASGFTFNTYAMNWVRQAPGKCLEWVARIRSKYNNYATYYADSVKGRFTISRDDAKNTLYLQMSSLRAEDTAVYYCVRHGNFGNSYVSWFAYWGQGTLVTVKP chain 2: EVQLVESGGGEVQPGGSLRLSCAASGFSFSSNVMMWVRQAPGKGLEWVSTIYSSGTGTFYAESVKGRFTISRDNAKNTLYLQMSSLRPEDTAVYYCATSGPVRGWGPRSQGTLVTVKPPGGGGDKTHTCPPCPAPPVAGPSVFLFPPKPKDTLMISRTPEVTCVVVDVKHEDPEVKFNWYVDGVEVHNAKTKPREEQYNSTYRVVSVLTVLHQDWLNGKEYKCKVSNKALPAPIEKTISKAKGQPREPQVYTLPPSREQMTKNQVKLTCLVKGFYPSDIAVEWESNGQPENNYKTTPPVLDSDGSFFLYSKLTVDKSRWQQGNVFSCSVMHEALHNHYTQKSLSLSPGKGGGGSGGGGSGGGGSQAVVTQEPSLTVSPGGTVTLTCGSSTGAVTTSNYANWVQQKPGQAFRGLIGGTNKRAPGVPARFSGSLLGGKAALTISGAQPEDEADYYCALWYSNHWVFGCGTKLEIK"
